Laboratory results reported in the supplement of paper PMC9112550, “Optimization of the antimicrobial peptide Bac7 by deep mutational scanning” (BMC Biology, 2022).
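Further: peptides expressed intracellularly from a pBAD plasmid library in pooled LB shake-flask culture, induced with 0.3% L-arabinose, DNA abundance read by NGS, three biological replicates, DESeq2 with apeglm shrinkage.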

Each sequence was assayed on Escherichia coli TOP10 (assay: shrunken log2 fold change of peptide-encoding DNA abundance (4.5 h post-induction vs induction); higher = less antimicrobial activity (less host growth inhibition)). Details: time post-induction: 4.5 h; library: site-saturation at positions 5, 18, 19, 20.
RRIRLRPPRLPRPRPRPWYAPRP was tested, and the “shrunken log2 fold change” value was -0.171. In the case of RRIRNRPPRLPRPRPRPGQIPRP, the “shrunken log2 fold change” value was 0.0192. RRIRLRPPRLPRPRPRPTPNPRP was tested, and the “shrunken log2 fold change” value was 0.403. RRIRLRPPRLPRPRPRPFYNPRP was tested, and the “shrunken log2 fold change” value was -0.584. In the case of RRIRTRPPRLPRPRPRPRGPPRP, the “shrunken log2 fold change” value was 1.02. In the case of RRIRYRPPRLPRPRPRPLKSPRP, the “shrunken log2 fold change” value was -0.365. In the case of RRIRSRPPRLPRPRPRPPDMPRP, the “shrunken log2 fold change” value was -0.188. With RRIRVRPPRLPRPRPRPMFDPRP the “shrunken log2 fold change” value was -0.338. With RRIRWRPPRLPRPRPRPNRRPRP the “shrunken log2 fold change” value was 0.191. In the case of RRIRHRPPRLPRPRPRPPSSPRP, the “shrunken log2 fold change” value was -0.00863. For RRIRVRPPRLPRPRPRPLRYPRP, the “shrunken log2 fold change” value was -0.142. For RRIRDRPPRLPRPRPRPHRHPRP, the “shrunken log2 fold change” value was -0.00955. For RRIRLRPPRLPRPRPRPYILPRP, the “shrunken log2 fold change” value was -0.317. In the case of RRIRWRPPRLPRPRPRPCDVPRP, the “shrunken log2 fold change” value was -0.00226. In the case of RRIRYRPPRLPRPRPRPNGYPRP, the “shrunken log2 fold change” value was 0.122. RRIRMRPPRLPRPRPRPSYGPRP was tested, and the “shrunken log2 fold change” value was -0.0196. RRIRDRPPRLPRPRPRPWCGPRP was tested, and the “shrunken log2 fold change” value was -0.00113. With RRIRPRPPRLPRPRPRPWFWPRP the “shrunken log2 fold change” value was 0.281. For RRIRSRPPRLPRPRPRPNPGPRP, the “shrunken log2 fold change” value was -0.17. RRIRLRPPRLPRPRPRPFWWPRP was tested, and the “shrunken log2 fold change” value was 0.483. For RRIRNRPPRLPRPRPRPHLAPRP, the “shrunken log2 fold change” value was 0.131. For RRIRERPPRLPRPRPRPTTQPRP, the “shrunken log2 fold change” value was 0.299. With RRIRARPPRLPRPRPRPRCVPRP the “shrunken log2 fold change” value was 0.347. RRIRPRPPRLPRPRPRPEDGPRP was tested, and the “shrunken log2 fold change” value was 0.0827. For RRIRPRPPRLPRPRPRPKGDPRP, the “shrunken log2 fold change” value was 0.022. With RRIRHRPPRLPRPRPRPASEPRP the “shrunken log2 fold change” value was -0.131. With RRIRMRPPRLPRPRPRPETVPRP the “shrunken log2 fold change” value was 2.2. With RRIRHRPPRLPRPRPRPDSPPRP the “shrunken log2 fold change” value was 0.0316. For RRIRERPPRLPRPRPRPCEVPRP, the “shrunken log2 fold change” value was 0.028. In the case of RRIRPRPPRLPRPRPRPMEEPRP, the “shrunken log2 fold change” value was -0.0433. For RRIRHRPPRLPRPRPRPGHHPRP, the “shrunken log2 fold change” value was -0.132. RRIRLRPPRLPRPRPRPNLMPRP was tested, and the “shrunken log2 fold change” value was -0.367. RRIRPRPPRLPRPRPRPKAPPRP was tested, and the “shrunken log2 fold change” value was 0.171. RRIRKRPPRLPRPRPRPMYVPRP was tested, and the “shrunken log2 fold change” value was -0.0793. With RRIRFRPPRLPRPRPRPEWHPRP the “shrunken log2 fold change” value was -0.28. RRIRLRPPRLPRPRPRPGRSPRP was tested, and the “shrunken log2 fold change” value was 0.326. In the case of RRIRFRPPRLPRPRPRPRNGPRP, the “shrunken log2 fold change” value was 0.101. For RRIRFRPPRLPRPRPRPLFGPRP, the “shrunken log2 fold change” value was 0.0395. In the case of RRIRHRPPRLPRPRPRPLMIPRP, the “shrunken log2 fold change” value was -0.498. For RRIRCRPPRLPRPRPRPSWFPRP, the “shrunken log2 fold change” value was -0.147. In the case of RRIRNRPPRLPRPRPRPRDKPRP, the “shrunken log2 fold change” value was -0.332. With RRIRTRPPRLPRPRPRPECRPRP the “shrunken log2 fold change” value was 0.569. In the case of RRIRFRPPRLPRPRPRPIWVPRP, the “shrunken log2 fold change” value was -0.107. In the case of RRIRHRPPRLPRPRPRPIFYPRP, the “shrunken log2 fold change” value was -0.204. RRIRPRPPRLPRPRPRPVLMPRP was tested, and the “shrunken log2 fold change” value was -0.161. RRIRRRPPRLPRPRPRPYMCPRP was tested, and the “shrunken log2 fold change” value was 0.154. RRIRNRPPRLPRPRPRPCNPPRP was tested, and the “shrunken log2 fold change” value was -0.378. In the case of RRIRPRPPRLPRPRPRPNQHPRP, the “shrunken log2 fold change” value was -0.43. For RRIRWRPPRLPRPRPRPFQYPRP, the “shrunken log2 fold change” value was -0.199. With RRIRFRPPRLPRPRPRPLMNPRP the “shrunken log2 fold change” value was -0.607. In the case of RRIRNRPPRLPRPRPRPEPIPRP, the “shrunken log2 fold change” value was 0.0458. With RRIRERPPRLPRPRPRPNRFPRP the “shrunken log2 fold change” value was 0.0105. For RRIRRRPPRLPRPRPRPLKFPRP, the “shrunken log2 fold change” value was -0.149. In the case of RRIRGRPPRLPRPRPRPRNFPRP, the “shrunken log2 fold change” value was 0.197. For RRIRYRPPRLPRPRPRPYPLPRP, the “shrunken log2 fold change” value was -0.146. RRIRVRPPRLPRPRPRPAKPPRP was tested, and the “shrunken log2 fold change” value was 0.296. With RRIRQRPPRLPRPRPRPDEKPRP the “shrunken log2 fold change” value was 0.02. RRIRIRPPRLPRPRPRPWPDPRP was tested, and the “shrunken log2 fold change” value was -0.207. In the case of RRIRLRPPRLPRPRPRPSNCPRP, the “shrunken log2 fold change” value was -0.581. With RRIRTRPPRLPRPRPRPTFCPRP the “shrunken log2 fold change” value was 0.147. In the case of RRIRDRPPRLPRPRPRPQKAPRP, the “shrunken log2 fold change” value was 0.0864. RRIRCRPPRLPRPRPRPDHGPRP was tested, and the “shrunken log2 fold change” value was -0.234. In the case of RRIRLRPPRLPRPRPRPNTWPRP, the “shrunken log2 fold change” value was -0.245. With RRIRSRPPRLPRPRPRPKEHPRP the “shrunken log2 fold change” value was 0.0336. RRIRDRPPRLPRPRPRPYVRPRP was tested, and the “shrunken log2 fold change” value was -0.402. In the case of RRIRMRPPRLPRPRPRPPFQPRP, the “shrunken log2 fold change” value was 0.202. For RRIRVRPPRLPRPRPRPAHWPRP, the “shrunken log2 fold change” value was 0.313. For RRIRQRPPRLPRPRPRPHAPPRP, the “shrunken log2 fold change” value was -0.0421. With RRIRWRPPRLPRPRPRPEGHPRP the “shrunken log2 fold change” value was 0.792. With RRIRFRPPRLPRPRPRPFFVPRP the “shrunken log2 fold change” value was -0.161. With RRIRKRPPRLPRPRPRPYYMPRP the “shrunken log2 fold change” value was -0.405. In the case of RRIRGRPPRLPRPRPRPVFYPRP, the “shrunken log2 fold change” value was -0.0818. RRIRRRPPRLPRPRPRPPKGPRP was tested, and the “shrunken log2 fold change” value was 0.706. With RRIRCRPPRLPRPRPRPERRPRP the “shrunken log2 fold change” value was 0.0271. With RRIRARPPRLPRPRPRPIYYPRP the “shrunken log2 fold change” value was -0.182.
